Reference: US20240117018A1

How the values were obtained:
Experiment in all cases: cell-based or functional assay
[1] = target: HIV-1 Env pseudovirus 1006_11_C3_1601 (HIV-1)
[2] = target: HIV-1 Env pseudovirus 1054_07_TC4_1499 (HIV-1)
[3] = target: HIV-1 Env pseudovirus 1056_10_TA11_1826 (HIV-1)
[4] = target: HIV-1 Env pseudovirus 1394C9G1(Rev-) (HIV-1)
[5] = target: HIV-1 Env pseudovirus 3103.v3.c10 (HIV-1)
[6] = target: HIV-1 Env pseudovirus 6811.v7.c18 (HIV-1)
[7] = target: HIV-1 Env pseudovirus BF1266.431a (HIV-1)
[8] = target: HIV-1 Env pseudovirus CAP210.2.00.E8 (HIV-1)
[9] = target: HIV-1 Env pseudovirus P1981_C5_3 (HIV-1)
[10] = target: HIV-1 Env pseudovirus Q461.e2 (HIV-1)
[11] = target: HIV-1 Env pseudovirus QH0692.42 (HIV-1)
[12] = target: HIV-1 Env pseudovirus SC422661.8 (HIV-1)
[13] = target: HIV-1 Env pseudovirus T251-18 (HIV-1)
[14] = target: HIV-1 Env pseudovirus X1254_c3 (HIV-1)
[15] = target: HIV-1 Env pseudovirus ZM247v1(Rev-) (HIV-1)
[16] = target: HIV-1 Env pseudovirus CNE52 (HIV-1)

Substance: VRC01 (antibody)
- IC50 (Titer in TZM.bl cells) [1]: 0.15 µg/mL
- IC80 (Titer in TZM.bl cells) [1]: 0.39 µg/mL
- IC50 (Titer in TZM.bl cells) [2]: 0.71 µg/mL
- IC80 (Titer in TZM.bl cells) [2]: 2.85 µg/mL
- IC50 (Titer in TZM.bl cells) [3]: 0.92 µg/mL
- IC80 (Titer in TZM.bl cells) [3]: 3.28 µg/mL
- IC50 (Titer in TZM.bl cells) [4]: 0.36 µg/mL
- IC80 (Titer in TZM.bl cells) [4]: 1.28 µg/mL
- IC50 (Titer in TZM.bl cells) [5]: 0.93 µg/mL
- IC80 (Titer in TZM.bl cells) [5]: 2.49 µg/mL
- IC50 (Titer in TZM.bl cells) [6]: 0.09 µg/mL
- IC80 (Titer in TZM.bl cells) [6]: 0.26 µg/mL
- IC50 (Titer in TZM.bl cells) [7]: 0.07 µg/mL
- IC80 (Titer in TZM.bl cells) [7]: 0.23 µg/mL
- IC50 (Titer in TZM.bl cells) [8]: > 50 µg/mL
- IC80 (Titer in TZM.bl cells) [8]: > 50 µg/mL
- IC50 (Titer in TZM.bl cells) [9]: 0.46 µg/mL
- IC80 (Titer in TZM.bl cells) [9]: 1.26 µg/mL
- IC50 (Titer in TZM.bl cells) [10]: 0.49 µg/mL
- IC80 (Titer in TZM.bl cells) [10]: 1.6 µg/mL
- IC50 (Titer in TZM.bl cells) [11]: 1.5 µg/mL
- IC80 (Titer in TZM.bl cells) [11]: 4.8 µg/mL
- IC50 (Titer in TZM.bl cells) [12]: 0.08 µg/mL
- IC80 (Titer in TZM.bl cells) [12]: 0.265 µg/mL
- IC80 (Titer in TZM.bl cells) [13]: 11.2 µg/mL
- IC50 (Titer in TZM.bl cells) [14]: 0.07 µg/mL
- IC80 (Titer in TZM.bl cells) [14]: 0.19 µg/mL
- IC50 (Titer in TZM.bl cells) [15]: 0.35 µg/mL
- IC80 (Titer in TZM.bl cells) [15]: 1.29 µg/mL

Substance: N49P7.2 (antibody)
- IC50 [1]: 0.085 µg/mL
- IC80 [1]: 0.237 µg/mL
- MPI [1]: 100
- IC50 [2]: 2.04 µg/mL
- IC80 [2]: 10.7 µg/mL
- MPI [2]: 99
- IC50 [3]: 0.114 µg/mL
- IC80 [3]: 0.771 µg/mL
- MPI [3]: 100
- IC50 [4]: > 50 µg/mL
- IC80 [4]: > 50 µg/mL
- MPI [4]: 20
- IC50 [7]: 0.029 µg/mL
- IC80 [7]: 0.159 µg/mL
- MPI [7]: 100
- IC50 [8]: 3.94 µg/mL
- IC80 [8]: 21.7 µg/mL
- MPI [8]: 95
- IC50 [16]: 0.03 µg/mL
- IC80 [16]: 0.088 µg/mL
- MPI [16]: 100
- IC50 [10]: 0.472 µg/mL
- IC80 [10]: 2.24 µg/mL
- MPI [10]: 100
- IC50 [11]: 1.26 µg/mL
- IC80 [11]: 4.42 µg/mL
- MPI [11]: 100
- IC50 [12]: 0.119 µg/mL
- IC80 [12]: 0.564 µg/mL
- MPI [12]: 100
- IC50 [15]: 0.177 µg/mL
- IC80 [15]: 2.5 µg/mL
- MPI [15]: 96

Substance: N49P11 (antibody)
- IC50 [1]: 0.125 µg/mL
- IC80 [1]: 0.487 µg/mL
- MPI [1]: 100
- IC50 [2]: 2.92 µg/mL
- IC80 [2]: 13.1 µg/mL
- MPI [2]: 100
- IC50 [3]: 4.77 µg/mL
- IC80 [3]: 14.2 µg/mL
- MPI [3]: 100
- IC50 [4]: 6.13 µg/mL
- IC80 [4]: 22.3 µg/mL
- MPI [4]: 100
- IC50 [7]: 0.998 µg/mL
- IC80 [7]: 7.13 µg/mL
- MPI [7]: 100
- IC50 [8]: 5.12 µg/mL
- IC80 [8]: 19.4 µg/mL
- MPI [8]: 100
- IC50 [16]: 0.06 µg/mL
- IC80 [16]: 0.307 µg/mL
- MPI [16]: 100
- IC50 [10]: 0.363 µg/mL
- IC80 [10]: 2.15 µg/mL
- MPI [10]: 100
- IC50 [11]: 0.55 µg/mL
- IC80 [11]: 2.65 µg/mL
- MPI [11]: 100
- IC50 [12]: 0.729 µg/mL
- IC80 [12]: 3.49 µg/mL
- MPI [12]: 100
- IC50 [15]: 7.48 µg/mL
- IC80 [15]: 21.5 µg/mL
- MPI [15]: 100

Substance: N49P18.1 (antibody)
- IC50 [1]: 2.8 µg/mL
- IC80 [1]: 9.66 µg/mL
- MPI [1]: 99
- IC50 [2]: > 50 µg/mL
- IC80 [2]: > 50 µg/mL
- MPI [2]: 0
- IC50 [3]: 30.5 µg/mL
- IC80 [3]: > 50 µg/mL
- MPI [3]: 62
- IC50 [4]: > 50 µg/mL
- IC80 [4]: > 50 µg/mL
- MPI [4]: 17
- IC50 [7]: 3.48 µg/mL
- IC80 [7]: 20.8 µg/mL
- MPI [7]: 93
- IC50 [8]: > 50 µg/mL
- IC80 [8]: > 50 µg/mL
- MPI [8]: 11
- IC50 [16]: 2.46 µg/mL
- IC80 [16]: 6.65 µg/mL
- MPI [16]: 100
- IC50 [10]: 24.7 µg/mL
- IC80 [10]: > 50 µg/mL
- MPI [10]: 68
- IC50 [11]: > 50 µg/mL
- IC80 [11]: > 50 µg/mL
- MPI [11]: 43
- IC50 [12]: 14.1 µg/mL
- IC80 [12]: 43.4 µg/mL
- MPI [12]: 84
- IC50 [15]: 10.9 µg/mL
- IC80 [15]: > 50 µg/mL
- MPI [15]: 79
